Laboratory results from paper PMC6843132, “The Plant NF-Y DNA Matrix In Vitro and In Vivo” (Plants, 2019).
Values belong to the binder of their own block, whether it stands above or below them.

Molecular target: T1, At NF-YB2/NF-YC3 histone fold domain (HFD) dimer (A. thaliana, UniProt Q9FGJ3 24-116; Q9ZVL3 55-148)
T1 construct: Nuclear factor Y subunit B2 (AtNF-YB2), Arabidopsis thaliana, aa 24-116, histone fold domain; Nuclear factor Y subunit C3 (AtNF-YC3), Arabidopsis thaliana, aa 55-148, histone fold domain; Preformed heterodimer; the 6His tag was removed with thrombin before gel filtration; also called AtNF-YB2/AtNF-YC3; HFD subunits; source: E. coli, co-expressed, purified (IMAC, thrombin cleavage, gel …)
T1 sequence (looked up) 1: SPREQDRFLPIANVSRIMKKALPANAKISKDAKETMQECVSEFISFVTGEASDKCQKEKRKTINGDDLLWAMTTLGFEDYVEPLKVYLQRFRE
T1 sequence (looked up) 2: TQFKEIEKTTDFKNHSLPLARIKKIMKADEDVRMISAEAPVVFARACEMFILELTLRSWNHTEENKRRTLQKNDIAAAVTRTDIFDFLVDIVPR
Assay: native gel or EMSA; NF-YA subunit (60-240 nM) with HFD dimer (30 nM) and Cy5-labelled 31 bp CAB2 CCAAT DNA probe (20 nM); 12 mM Tris-HCl pH 8.0, 50 mM NaCl, 50 mM KCl, 5 mM MgCl2, 30 °C 30 min; 6% polyacrylamide, 0.25X TBE; trimer read out as the shifted DNA complex
Details: both partners purified

- binding result: binds
B1: AtNF-YA2-6His (aa 134-207) (domain or fragment)
chain: not shown
notes: Nuclear factor Y subunit A2 (AtNF-YA2), Arabidopsis thaliana, aa 134-207, evolutionarily conserved domain; source: E. coli, purified (IMAC); not shown: His6, C-terminal, kept

- binding result: binds
B2: AtNF-YA6-6His (aa 170-237) (domain or fragment)
chain: not shown
notes: Nuclear factor Y subunit A6 (AtNF-YA6), Arabidopsis thaliana, aa 170-237, evolutionarily conserved domain; source: E. coli, purified (IMAC); not shown: His6, C-terminal, kept
